Data from US20130330346A1 (Novartis, published 2013).

B1: CXCR20023 (bispecific antibody)
chain: EVQLVESGGGLVQAGGSLRLSCAASGRTFSDYAMGWFRQAPGKEREFVAAITWNGGRVFYTASVKGRFTISRDNAKNTMYLQMNSLKPEDTAVYYCAADKDRRTDYLGHPVAYWGQGTQVTVSSGGGGSGGGGSGGGGSGGGGSGGGGSGGGGSGGGGSEVQLVESGGGLVQPGGSLRLSCVASGRIFSSNAMGWFRQAPGKEREFVAAITWRSGGSAYYADSAKGRFTISRDNAKNTVYLQMNSLKPEDTAVYYCAAGGSSWLSFPPDYWGQGTQVTVSS
notes: Two different VHH joined by a GlySer linker; also called 163D2-35GS-163E3; not shown: C-terminal c-myc tag and His6 tag coded by pAX100
B2: CXCR20025 (bispecific antibody)
chain: EVQLVESGGGLVQAGGSLRLSCAASGRTFSDYAMGWFRQAPGKEREFVAAITWNGGRVFYTASVKGRFTISRDNAKNTMYLQMNSLKPEDTAVYYCAADKDRRTDYLGHPVAYWGQGTQVTVSSGGGGSGGGGSGGGGSGGGGSGGGGSGGGGSGGGGSEVQLVESGGGLVQAGESLRLSCAASGSTFDFKVMGWYRQPPGKQREGVAAIRLSGNMHYAESVKGRFTISKANAKNTVYLQMNSLRPEDTAVYYCKVNIRGQDYWGQGTQVTVSS
notes: Biparatopic: two VHH joined by a GlySer linker; also called 163D2-35GS-127D1; not shown: C-terminal c-myc tag and His6 tag coded by pAX100
B3: CXCR20024 (VHH)
chain: EVQLVESGGGLVQPGGSLRLSCVASGRIFSSNAMGWFRQAPGKEREFVAAITWRSGGSAYYADSAKGRFTISRDNAKNTVYLQMNSLKPEDTAVYYCAAGGSSWLSFPPDYWGQGTQVTVSSGGGGSGGGGSGGGGSGGGGSGGGGSGGGGSGGGGSEVQLVESGGGLVQPGGSLRLSCVASGRIFSSNAMGWFRQAPGKEREFVAAITWRSGGSAYYADSAKGRFTISRDNAKNTVYLQMNSLKPEDTAVYYCAAGGSSWLSFPPDYWGQGTQVTVSS
notes: Bivalent: two VHH joined by a GlySer linker; also called 163E3-35GS-163E3; not shown: C-terminal c-myc tag and His6 tag coded by pAX100
B4: CXCR20017 (other)
chain: EVQLVESGGGLVQPGGSLRLSCVASGSIVRINTMGWYRQTPGKQRELVADITSGGNINYIDAVKGRFTISRDNTKNTVYLQMNSLKPEDTAVYYCNAEIVVLVGVWTQRARTGNYWGQGTQVTVSSGGGGSGGGGSGGGGSGGGGSGGGGSGGGGSGGGGSEVQLVESGGGLVQPGGSVRLSCVASGIIFRLSALGWTRQGPGKAREWVAGINSDGTTNYADPVKGRFTISRDNAKNTIYLHMDMLKPEDTAVYYCASGKYRGQGTQVTVSS
notes: Two different VHH joined by a GlySer linker; also called 97A9-35GS-137B7; not shown: C-terminal c-myc tag and His6 tag coded by pAX100

Each binder was assayed against T1, Human CXCR2 (human, UniProt P25025 1-360) (assay: cell-based or functional assay).
T1 sequence: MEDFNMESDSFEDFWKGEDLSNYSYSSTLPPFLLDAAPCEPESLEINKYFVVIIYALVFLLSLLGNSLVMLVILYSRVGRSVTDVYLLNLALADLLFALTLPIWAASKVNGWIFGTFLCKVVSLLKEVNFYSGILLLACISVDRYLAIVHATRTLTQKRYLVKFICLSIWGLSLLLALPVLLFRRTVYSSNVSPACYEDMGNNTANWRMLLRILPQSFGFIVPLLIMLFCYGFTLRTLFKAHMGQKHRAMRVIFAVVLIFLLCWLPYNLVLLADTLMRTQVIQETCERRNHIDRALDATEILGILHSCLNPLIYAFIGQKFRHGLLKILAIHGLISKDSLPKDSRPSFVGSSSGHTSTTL

Row | Binder | [35S]GTPγS % inhibition of max (GRO-α) | [35S]GTPγS IC50 (GRO-α)
1 | B1 | 100% | 26.6 nM
2 | B2 | 100% | 0.891 nM
3 | B3 | 100% | 30.3 nM

Target: T2, Cynomolgus CXCR2 (cynomolgus, UniProt Q28519 3-353 (rhesus entry))
T2 construct: On transfected HEK293T or RBL-2H3 cells; native on cynomolgus neutrophils in the WBSC assay; also called cCXCR2; cynoCXCR2
T2 chain: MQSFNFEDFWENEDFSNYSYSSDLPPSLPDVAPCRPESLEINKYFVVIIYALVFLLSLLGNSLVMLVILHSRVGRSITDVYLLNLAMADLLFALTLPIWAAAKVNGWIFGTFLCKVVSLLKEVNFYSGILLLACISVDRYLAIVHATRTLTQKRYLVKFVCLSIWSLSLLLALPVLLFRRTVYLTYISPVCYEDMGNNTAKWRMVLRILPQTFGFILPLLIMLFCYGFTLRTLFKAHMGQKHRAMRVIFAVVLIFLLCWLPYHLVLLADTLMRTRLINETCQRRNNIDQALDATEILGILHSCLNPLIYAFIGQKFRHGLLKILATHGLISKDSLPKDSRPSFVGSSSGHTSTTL
Test: FACS competition vs 3 nM FMAT-Blue Gro-α
Protocol: (§1) Multivalent anti-CXCR2Nanobodies were titrated against 3 nM FMAT-Blue-labeled Gro-α in the FACS ligand competition assay on human and cynomolgus CXCR2 (Table 14). On human CXCR2, blocking potencies range between double digit nM and sub-nM whereas on cynomolgus CXCR2, they range between single and double digit nM.

Row | Binder | % inhibition of max | IC50
4 | B4 | 73% | 29.5 nM
5 | B1 | 96% | 6.61 nM
6 | B2 | 98.5% | 2.08 nM
7 | B3 | 95% | 5.32 nM

What follows are binders tested against T1, Human CXCR2 (assay: FACS competition vs 3 nM FMAT-Blue Gro-α).
Protocol: as §1

Row | Binder | % inhibition of max | IC50
8 | B4 | 99% | 3.4 nM
9 | B1 | 99% | 4.28 nM
10 | B2 | 99% | 0.9 nM
11 | B3 | 99% | 5.27 nM

Target: T2, Cynomolgus CXCR2
Test: cell-based or functional assay

Row | Binder | FLIPR % inhibition of max | FLIPR IC50 (GRO-α induced calcium release)
12 | B4 | 100% | 1080 nM
13 | B1 | 100% | 12 nM
14 | B2 | 100% | 7.88 nM
15 | B3 | 100% | 11.8 nM

Target: T1, Human CXCR2
Test: cell-based or functional assay
Remark: another data set of the same source

Row | Binder | FLIPR % inhibition of max | FLIPR IC50 (GRO-α induced calcium release)
16 | B4 | 100% | 22.9 nM
17 | B1 | 100% | 14.8 nM
18 | B2 | 100% | 12.2 nM
19 | B3 | 100% | 26.4 nM
